The supplement of paper PMC7877785
± gives the uncertainty stated by the source.

Test: self-splicing fitness, log relative to wild type (ln ratio); higher = more splicing; Tetrahymena group I intron in knt gene, E. coli kanamycin selection, DiMSum; sequences stand for … in CUCUCU…GGAGGGAAAAGUUAUCAGGCAUGCACCUGGUAGCUAGUCUUUAAACCAAUAGAUUGCAUCGGUUUAAAAGGCAAGACCGUCAAAUUGCGGGAAAGGGGUCAACAGCCGUUCAGUACCAAGUCUCAGGGGAAACUUUGAGAUGGCCUUGCAAAGGGUAUGGUAAUAAGCUGACGGACAUGGUCCUAACCACGCAGCCAAGUCCUAAGUCAACAGAUCUUCUGUUGAUAUGGAUGCAGUUCACAGACUAAAUGUCGGUCGGGGAAGAUGUAUUCUUCUCAUAAGAUAUAGUCGGACCUCUCCUUAAUGGGAGCUAGCGGAUGAAGUGAUGCAACACUGGAGCCGCUGGGAACUAAUUUGUAUGCGAAAGUAUAUUGAUUAGUUUUGGAGUACUCGUGGUCG
How it was run: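 DiMSum derived fitness as the error-weighted combination of fold changes across replicates, kanamycin versus no kanamycin, normalised to wild type. E. coli BL21(DE3) held the library, which randomised all eight P1ex-region intron nucleotides within the knt kanamycin-resistance gene on pET-22b(+). Six replicate transformations grew overnight at 37°C or 30°C on LB agar with or without 25 μg/mL kanamycin, also containing 100 μg/mL carbenicillin, 50 μM IPTG and 0.2% rhamnose, and pooled colonies were amplicon-sequenced on an Illumina HiSeq 2500.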

With AUUCAGCAAUAUUACGUGUC the “self-splicing fitness (ln)” value (30 °C) was -4.2 ± 0.22 and the “self-splicing fitness (ln)” value (37 °C) was -2.02 ± 0.2.

For CGUCAGCAAUAUUACGCUGG, the “self-splicing fitness (ln)” value (30 °C) was -2.6 ± 0.3 and the “self-splicing fitness (ln)” value (37 °C) was -2.14 ± 0.34.

In the case of CACAAGCAAUAUUACGUCGG, the “self-splicing fitness (ln)” value (30 °C) is reported as -0.785 ± 0.05 and the “self-splicing fitness (ln)” value (37 °C) is reported as -0.422 ± 0.063.

With GGCAAGCAAUAUUACGAAAU the “self-splicing fitness (ln)” value (30 °C) was -0.0122 ± 0.15 and the “self-splicing fitness (ln)” value (37 °C) was -0.727 ± 0.12.

For UAACAGCAAUAUUACGCUUA, the “self-splicing fitness (ln)” value (30 °C) was -0.77 ± 0.071 and the “self-splicing fitness (ln)” value (37 °C) was 0.122 ± 0.1.

In the case of UAUGAGCAAUAUUACGACUG, the “self-splicing fitness (ln)” value (30 °C) is reported as -1.23 ± 0.12 and the “self-splicing fitness (ln)” value (37 °C) is reported as -0.328 ± 0.14.

With AUGAAGCAAUAUUACGUGAU the “self-splicing fitness (ln)” value (30 °C) was -1.24 ± 0.073 and the “self-splicing fitness (ln)” value (37 °C) was -0.839 ± 0.085.

For GAUGAGCAAUAUUACGUUAA, the “self-splicing fitness (ln)” value (30 °C) was -2.39 ± 0.32.

For CAACAGCAAUAUUACGUGGC, the “self-splicing fitness (ln)” value (30 °C) was -3.17 ± 0.12 and the “self-splicing fitness (ln)” value (37 °C) was -2.81 ± 0.16.

In the case of CCCAAGCAAUAUUACGGCUC, the “self-splicing fitness (ln)” value (30 °C) is reported as -2.28 ± 0.21 and the “self-splicing fitness (ln)” value (37 °C) is reported as -2.59 ± 0.29.

For UCGCAGCAAUAUUACGAUAC, the “self-splicing fitness (ln)” value (30 °C) was -3.52 ± 0.46 and the “self-splicing fitness (ln)” value (37 °C) was -2.76 ± 0.34.

In the case of ACUUAGCAAUAUUACGAGCC, the “self-splicing fitness (ln)” value (30 °C) is reported as -2.49 ± 0.3 and the “self-splicing fitness (ln)” value (37 °C) is reported as -1.26 ± 0.31.

For AACAAGCAAUAUUACGUGCG, the “self-splicing fitness (ln)” value (30 °C) was -1.17 ± 0.05 and the “self-splicing fitness (ln)” value (37 °C) was -0.476 ± 0.064.

In the case of ACAGAGCAAUAUUACGCAUC, the “self-splicing fitness (ln)” value (30 °C) is reported as -4.07 ± 0.25 and the “self-splicing fitness (ln)” value (37 °C) is reported as -2.59 ± 0.23.

With CGAAAGCAAUAUUACGGAUC the “self-splicing fitness (ln)” value (30 °C) was -2.95 ± 0.16 and the “self-splicing fitness (ln)” value (37 °C) was -2.02 ± 0.15.

With AGCAAGCAAUAUUACGCUUC the “self-splicing fitness (ln)” value (37 °C) was -3.29 ± 0.42.

For CAGUAGCAAUAUUACGAUUG, the “self-splicing fitness (ln)” value (30 °C) was -1.73 ± 0.083 and the “self-splicing fitness (ln)” value (37 °C) was -0.648 ± 0.11.

In the case of CCGCAGCAAUAUUACGUGCA, the “self-splicing fitness (ln)” value (30 °C) is reported as -3.71 ± 0.33 and the “self-splicing fitness (ln)” value (37 °C) is reported as -1.54 ± 0.14.

For CCAUAGCAAUAUUACGAGUC, the “self-splicing fitness (ln)” value (30 °C) was -4.04 ± 0.19 and the “self-splicing fitness (ln)” value (37 °C) was -2.89 ± 0.21.

For UCUGAGCAAUAUUACGCCAU, the “self-splicing fitness (ln)” value (37 °C) was -2.32 ± 0.31.

In the case of GUGCAGCAAUAUUACGAACC, the “self-splicing fitness (ln)” value (30 °C) is reported as -1.94 ± 0.3 and the “self-splicing fitness (ln)” value (37 °C) is reported as 0.395 ± 0.48.

In the case of GCGCAGCAAUAUUACGGAAU, the “self-splicing fitness (ln)” value (30 °C) is reported as -1.12 ± 0.13 and the “self-splicing fitness (ln)” value (37 °C) is reported as -0.337 ± 0.15.

For GGCUAGCAAUAUUACGCGGU, the “self-splicing fitness (ln)” value (30 °C) was -2.92 ± 0.38 and the “self-splicing fitness (ln)” value (37 °C) was -3.63 ± 0.24.

For AGACAGCAAUAUUACGACUC, the “self-splicing fitness (ln)” value (30 °C) was -2.28 ± 0.18 and the “self-splicing fitness (ln)” value (37 °C) was -0.623 ± 0.2.

With ACACAGCAAUAUUACGGCUC the “self-splicing fitness (ln)” value (30 °C) was -0.896 ± 0.067 and the “self-splicing fitness (ln)” value (37 °C) was -0.461 ± 0.088.

In the case of AGAAAGCAAUAUUACGUAAA, the “self-splicing fitness (ln)” value (30 °C) is reported as -2.15 ± 0.12 and the “self-splicing fitness (ln)” value (37 °C) is reported as -1.88 ± 0.14.

For UUCCAGCAAUAUUACGCAAU, the “self-splicing fitness (ln)” value (30 °C) was -2.02 ± 0.17 and the “self-splicing fitness (ln)” value (37 °C) was -1.31 ± 0.14.

With CGCAAGCAAUAUUACGGCUG the “self-splicing fitness (ln)” value (30 °C) was -1.33 ± 0.065 and the “self-splicing fitness (ln)” value (37 °C) was 0.0892 ± 0.085.

With UCGAAGCAAUAUUACGUAAA the “self-splicing fitness (ln)” value (30 °C) was -1.72 ± 0.11 and the “self-splicing fitness (ln)” value (37 °C) was -0.804 ± 0.14.

For UAUUAGCAAUAUUACGCAGA, the “self-splicing fitness (ln)” value (30 °C) was -1.96 ± 0.28 and the “self-splicing fitness (ln)” value (37 °C) was -1.63 ± 0.23.

For CUCGAGCAAUAUUACGCAUA, the “self-splicing fitness (ln)” value (30 °C) was -2.34 ± 0.26.

For ACGGAGCAAUAUUACGAUGU, the “self-splicing fitness (ln)” value (30 °C) was -3.19 ± 0.2 and the “self-splicing fitness (ln)” value (37 °C) was -2.52 ± 0.27.

For AUCAAGCAAUAUUACGGAAC, the “self-splicing fitness (ln)” value (30 °C) was -4.1 ± 0.15 and the “self-splicing fitness (ln)” value (37 °C) was -2.3 ± 0.12.

For CCAAAGCAAUAUUACGAGAA, the “self-splicing fitness (ln)” value (30 °C) was -3.52 ± 0.44 and the “self-splicing fitness (ln)” value (37 °C) was -3 ± 0.35.

In the case of CAAUAGCAAUAUUACGUAGA, the “self-splicing fitness (ln)” value (30 °C) is reported as -3.48 ± 0.16 and the “self-splicing fitness (ln)” value (37 °C) is reported as -2.37 ± 0.17.

In the case of CCGUAGCAAUAUUACGAGAA, the “self-splicing fitness (ln)” value (30 °C) is reported as -2.42 ± 0.42 and the “self-splicing fitness (ln)” value (37 °C) is reported as -1.03 ± 0.44.

In the case of GGUCAGCAAUAUUACGACGU, the “self-splicing fitness (ln)” value (30 °C) is reported as 0.0937 ± 0.091 and the “self-splicing fitness (ln)” value (37 °C) is reported as 0.477 ± 0.1.

For CCAUAGCAAUAUUACGGAUG, the “self-splicing fitness (ln)” value (30 °C) was -2.42 ± 0.11 and the “self-splicing fitness (ln)” value (37 °C) was -1.43 ± 0.11.

With UAUGAGCAAUAUUACGCAUU the “self-splicing fitness (ln)” value (30 °C) was -3.57 ± 0.25 and the “self-splicing fitness (ln)” value (37 °C) was -2.15 ± 0.22.
